Source: paper PMC546145
Where two headings read alike, the source gives them in different places.

What was measured:
Test in all cases: competition EMSA
[1] = molecular target: T1, Ku heterodimer, Ku70 subunit;Ku heterodimer, Ku80 subunit (human;human, UniProt P12956;P13010 1-609;1-732, |)
[2] = molecular target: T1, Ku heterodimer, Ku70 subunit;Ku …; remark: listed apart in the source
[3] = molecular target: T1, Ku heterodimer, Ku70 subunit;Ku …; remark: listed apart in the source

T1 sequence (P12956 whole entry, chain 1 of 2): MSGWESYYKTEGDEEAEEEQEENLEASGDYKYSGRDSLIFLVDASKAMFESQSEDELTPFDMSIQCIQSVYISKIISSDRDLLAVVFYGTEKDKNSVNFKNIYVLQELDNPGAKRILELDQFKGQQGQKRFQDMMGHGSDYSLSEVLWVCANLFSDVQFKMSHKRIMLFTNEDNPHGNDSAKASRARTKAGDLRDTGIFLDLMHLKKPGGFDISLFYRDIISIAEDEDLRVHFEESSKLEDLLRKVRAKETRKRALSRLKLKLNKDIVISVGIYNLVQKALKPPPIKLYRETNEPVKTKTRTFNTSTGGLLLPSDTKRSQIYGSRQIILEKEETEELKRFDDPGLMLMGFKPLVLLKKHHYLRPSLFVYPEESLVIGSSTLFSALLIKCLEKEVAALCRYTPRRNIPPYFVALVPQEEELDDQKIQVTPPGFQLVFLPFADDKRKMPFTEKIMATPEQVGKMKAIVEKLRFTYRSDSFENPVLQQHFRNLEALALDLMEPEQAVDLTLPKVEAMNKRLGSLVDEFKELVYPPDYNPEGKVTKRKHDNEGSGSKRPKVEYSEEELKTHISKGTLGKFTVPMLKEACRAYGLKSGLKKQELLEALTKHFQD
T1 sequence (P13010 whole entry, chain 2 of 2): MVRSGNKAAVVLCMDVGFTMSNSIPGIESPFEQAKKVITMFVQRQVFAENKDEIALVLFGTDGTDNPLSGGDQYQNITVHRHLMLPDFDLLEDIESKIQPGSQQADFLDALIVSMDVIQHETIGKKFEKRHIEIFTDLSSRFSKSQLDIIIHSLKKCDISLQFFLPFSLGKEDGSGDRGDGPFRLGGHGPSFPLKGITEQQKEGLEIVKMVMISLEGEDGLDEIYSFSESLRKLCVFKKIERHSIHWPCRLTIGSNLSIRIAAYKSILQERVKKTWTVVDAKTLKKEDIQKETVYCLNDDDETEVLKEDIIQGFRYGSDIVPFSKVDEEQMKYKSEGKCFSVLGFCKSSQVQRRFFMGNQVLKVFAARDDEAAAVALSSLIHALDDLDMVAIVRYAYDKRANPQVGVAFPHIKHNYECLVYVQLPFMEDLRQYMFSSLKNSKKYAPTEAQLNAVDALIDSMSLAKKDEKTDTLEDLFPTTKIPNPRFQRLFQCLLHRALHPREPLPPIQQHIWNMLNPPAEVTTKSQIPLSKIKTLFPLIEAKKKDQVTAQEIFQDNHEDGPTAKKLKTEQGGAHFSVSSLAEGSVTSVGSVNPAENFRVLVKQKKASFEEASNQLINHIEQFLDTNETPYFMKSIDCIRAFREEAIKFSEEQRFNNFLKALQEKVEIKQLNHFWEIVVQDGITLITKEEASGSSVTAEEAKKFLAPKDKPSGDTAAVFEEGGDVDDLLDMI

B1: MP/5B + Pt (dsDNA)
DNA 1: CCCCTCTCCTTCTTGGCTTCTTCCTTCCCC
DNA 2: GGGGAAGGAAGAAGCCAAGAAGGAGAGGGG
modifications: cisplatin adduct at central GG of strand 1 (15-16); 5' biotin on strand 2
Q: Does B1 bind [1]?
A: binds

B2: MP/3B + Pt (dsDNA)
DNA 1: CCCCTCTCCTTCTTGGCTTCTTCCTTCCCC
DNA 2: GGGGAAGGAAGAAGCCAAGAAGGAGAGGGG
modifications: cisplatin adduct at central GG of strand 1 (15-16); 3' biotin on strand 2
Q: Does B2 bind [2]?
A: binds

B3: 5P/5B undamaged (dsDNA)
DNA 1: CCCCTGGCTTTCTTTTCCTCTTCCTTCCCC
DNA 2: GGGGAAGGAAGAGGAAAAGAAAGCCAGGGG
modifications: 5' biotin on strand 2
Q: Does B3 bind [3]?
A: binds
